In paper PMC6590076:

Target: 14-3-3β (UniProt P31946)
Test: in vitro pull-down, immobilized phosphoprotein

Substance	binding against the reference (reference: FOXO3A with Ser253 (supD tRNA), sites S253)	binding against the reference (reference: FOXO3A with Ser413 (supD tRNA), sites S413)
FOXO3A (from UniProt O43524) FOXO3A with pSer253 (SepOTSλ)	stronger	–
FOXO3A (from UniProt O43524) FOXO3A with pSer413 (SepOTSλ)	–	stronger
